Assay results taken from paper PMC6746701, “A phyB-PIF1-SPA1 kinase regulatory complex promotes photomorphogenesis in Arabidopsis” (Nature Communications, 2019).

B1: phyB-GFP FL holoprotein (Pichia pastoris purified) (receptor, Arabidopsis, UniProt P14713 1-1172, looked up)
chain: MVSGVGGSGGGRGGGRGGEEEPSSSHTPNNRRGGEQAQSSGTKSLRPRSNTESMSKAIQQYTVDARLHAVFEQSGESGKSFDYSQSLKTTTYGSSVPEQQITAYLSRIQRGGYIQPFGCMIAVDESSFRIIGYSENAREMLGIMPQSVPTLEKPEILAMGTDVRSLFTSSSSILLERAFVAREITLLNPVWIHSKNTGKPFYAILHRIDVGVVIDLEPARTEDPALSIAGAVQSQKLAVRAISQLQALPGGDIKLLCDTVVESVRDLTGYDRVMVYKFHEDEHGEVVAESKRDDLEPYIGLHYPATDIPQASRFLFKQNRVRMIVDCNATPVLVVQDDRLTQSMCLVGSTLRAPHGCHSQYMANMGSIASLAMAVIINGNEDDGSNVASGRSSMRLWGLVVCHHTSSRCIPFPLRYACEFLMQAFGLQLNMELQLALQMSEKRVLRTQTLLCDMLLRDSPAGIVTQSPSIMDLVKCDGAAFLYHGKYYPLGVAPSEVQIKDVVEWLLANHADSTGLSTDSLGDAGYPGAAALGDAVCGMAVAYITKRDFLFWFRSHTAKEIKWGGAKHHPEDKDDGQRMHPRSSFQAFLEVVKSRSQPWETAEMDAIHSLQLILRDSFKESEAAMNSKVVDGVVQPCRDMAGEQGIDELGAVAREMVRLIETATVPIFAVDAGGCINGWNAKIAELTGLSVEEAMGKSLVSDLIYKENEATVNKLLSRALRGDEEKNVEVKLKTFSPELQGKAVFVVVNACSSKDYLNNIVGVCFVGQDVTSQKIVMDKFINIQGDYKAIVHSPNPLIPPIFAADENTCCLEWNMAMEKLTGWSRSEVIGKMIVGEVFGSCCMLKGPDALTKFMIVLHNAIGGQDTDKFPFPFFDRNGKFVQALLTANKRVSLEGKVIGAFCFLQIPSPELQQALAVQRRQDTECFTKAKELAYICQVIKNPLSGMRFANSLLEATDLNEDQKQLLETSVSCEKQISRIVGDMDLESIEDGSFVLKREEFFLGSVINAIVSQAMFLLRDRGLQLIRDIPEEIKSIEVFGDQIRIQQLLAEFLLSIIRYAPSQEWVEIHLSQLSKQMADGFAAIRTEFRMACPGEGLPPELVRDMFHSSRWTSPEGLGLSVCRKILKLMNGEVQYIRESERSYFLIILELPVPRKRPLSTASGSGDMMLMMPY
modifications: holoprotein (chromophore bound)
notes: phytochrome B (phyB), Arabidopsis, full length; the host named for this assay is Pichia pastoris; source: Pichia pastoris, purified; not shown: GFP, C-terminal, kept
B2: phyB-GFP ΔC holoprotein (Pichia pastoris purified) (domain or fragment, Arabidopsis, UniProt P14713 1-1092, looked up)
chain: MVSGVGGSGGGRGGGRGGEEEPSSSHTPNNRRGGEQAQSSGTKSLRPRSNTESMSKAIQQYTVDARLHAVFEQSGESGKSFDYSQSLKTTTYGSSVPEQQITAYLSRIQRGGYIQPFGCMIAVDESSFRIIGYSENAREMLGIMPQSVPTLEKPEILAMGTDVRSLFTSSSSILLERAFVAREITLLNPVWIHSKNTGKPFYAILHRIDVGVVIDLEPARTEDPALSIAGAVQSQKLAVRAISQLQALPGGDIKLLCDTVVESVRDLTGYDRVMVYKFHEDEHGEVVAESKRDDLEPYIGLHYPATDIPQASRFLFKQNRVRMIVDCNATPVLVVQDDRLTQSMCLVGSTLRAPHGCHSQYMANMGSIASLAMAVIINGNEDDGSNVASGRSSMRLWGLVVCHHTSSRCIPFPLRYACEFLMQAFGLQLNMELQLALQMSEKRVLRTQTLLCDMLLRDSPAGIVTQSPSIMDLVKCDGAAFLYHGKYYPLGVAPSEVQIKDVVEWLLANHADSTGLSTDSLGDAGYPGAAALGDAVCGMAVAYITKRDFLFWFRSHTAKEIKWGGAKHHPEDKDDGQRMHPRSSFQAFLEVVKSRSQPWETAEMDAIHSLQLILRDSFKESEAAMNSKVVDGVVQPCRDMAGEQGIDELGAVAREMVRLIETATVPIFAVDAGGCINGWNAKIAELTGLSVEEAMGKSLVSDLIYKENEATVNKLLSRALRGDEEKNVEVKLKTFSPELQGKAVFVVVNACSSKDYLNNIVGVCFVGQDVTSQKIVMDKFINIQGDYKAIVHSPNPLIPPIFAADENTCCLEWNMAMEKLTGWSRSEVIGKMIVGEVFGSCCMLKGPDALTKFMIVLHNAIGGQDTDKFPFPFFDRNGKFVQALLTANKRVSLEGKVIGAFCFLQIPSPELQQALAVQRRQDTECFTKAKELAYICQVIKNPLSGMRFANSLLEATDLNEDQKQLLETSVSCEKQISRIVGDMDLESIEDGSFVLKREEFFLGSVINAIVSQAMFLLRDRGLQLIRDIPEEIKSIEVFGDQIRIQQLLAEFLLSIIRYAPSQEWVEIHLSQLSKQMADGFAAIRTEFRMACP
modifications: holoprotein (chromophore bound)
notes: phytochrome B (phyB), Arabidopsis, residues 1-1092 (lacks the last 80 amino acids); source: Pichia pastoris, purified; not shown: GFP, C-terminal, kept

Target: the molecule itself
Experiment: native gel or EMSA; 5 µg holoprotein on a native 6% PAGE gel, 4 °C, 100 V, 3 h, Coomassie; dimerisation

Protein | binding result
B1 | binds
B2 | binds
